# Data from patent publication US20130245238A1 (Bristol-Myers Squibb, published 2013).
# T1: biotinylated murine IL-17 (murine, UniProt Q62386 26-158, limits assumed, biotinylated (site not stated))
# T1 construct: Used at 2.5 nM in the Alphascreen assay; also called interleukin 17
# T1 sequence (looked up): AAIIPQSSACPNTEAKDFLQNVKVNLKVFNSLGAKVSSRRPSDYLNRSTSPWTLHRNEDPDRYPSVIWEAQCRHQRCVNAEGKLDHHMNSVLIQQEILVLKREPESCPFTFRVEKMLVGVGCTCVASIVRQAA
# T2: human PXR-GST (Invitrogen) (human, UniProt O75469 111-434, limits assumed)
# T2 construct: Captured on an anti-GST antibody chip; the whole natural protein is named; also called GST-PXR; GST-tagged PXR; not shown: GST tag
# T2 sequence (looked up): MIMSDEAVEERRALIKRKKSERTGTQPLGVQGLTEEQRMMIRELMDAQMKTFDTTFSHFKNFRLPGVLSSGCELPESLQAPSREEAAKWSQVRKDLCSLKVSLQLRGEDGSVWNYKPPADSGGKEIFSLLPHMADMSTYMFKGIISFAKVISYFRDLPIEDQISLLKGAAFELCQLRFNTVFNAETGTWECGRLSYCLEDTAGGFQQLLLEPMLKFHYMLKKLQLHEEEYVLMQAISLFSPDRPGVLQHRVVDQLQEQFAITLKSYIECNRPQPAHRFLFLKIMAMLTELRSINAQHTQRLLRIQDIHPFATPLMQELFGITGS
# Target: T1, biotinylated murine IL-17
# Assay: competitive Alphascreen; 1 µM binder, biotinylated murine IL-17 against murine IL-17RA-Fc
row,Binder,% inhibition of the Alphascreen signal [%]
1,"WS-LI1 binder having the sequence of SEQ ID NO: 46 (designed binder, Modified ^10Fn3 domain (CD and FG loops)) MGVSDVPRDLEVVAATPTSLLISWDAPAVTVRYYRITYGEYSSFFQHQGQYYHYIQEFTVPGSKSTATISGLKPGVDYTITVYAVTQHEHSQDSSKPISINYRTEIDKPSQ",94
2,"WS-LI1 binder having the sequence of SEQ ID NO: 45 (designed binder, Modified ^10Fn3 domain (CD and FG loops)) MGVSDVPRDLEVVAATPTSLLISWDAPAVTVRYYRITYGEYHAFFASNGKYYFYIQEFTVPGSKSTATISGLKPGVDYTITVYAVTDDTVHHGDSNYHSSKPISINYRTEIDKPSQ",83
3,"WS-LI1 binder having the sequence of SEQ ID NO: 47 (designed binder, Modified ^10Fn3 domain (CD and FG loops)) MGVSDVPRDLEVVAATPTSLLISWDAPAVTVRYYRITYGEFSQFVHSDGEYYQEYQEFTVPGSKSTATISGLKPGVDYTITVYAVTGQYDQDDEPSSKPISINYRTEIDKPSQ",81

# Target: T3, murine DLL4 (murine, UniProt Q9JI71 28-525, limits assumed)
# T3 construct: Soluble protein used at 20 nM; construct and source are not described; also called delta-like protein 4
# Assay: competitive Biacore; 2 µM binder equilibrated with 20 nM murine DLL4, flowed over immobilised Notch1-Fc
row,Binder,% competition of the interaction between Notch1 and murine DLL4 [%]
1,"WS-LI1 binder having the sequence of SEQ ID NO: 5 (designed binder, Modified ^10Fn3 domain (CD and FG loops)) MGVSDVPRDLEVVAATPTSLLISWDAPAVTVRYYRITYGEYHEHYHSPGFSQKYHYEQEFTVPGSKSTATISGLKPGVDYTITVYAVTGHKHYHYYYYYHHHSSKPISINYRTEIDKPSQ",75
2,"WS-LI1 binder having the sequence of SEQ ID NO: 3 (designed binder, Modified ^10Fn3 domain (CD and FG loops)) MGVSDVPRDLEVVAATPTSLLISWDAPAVTVRYYRITYGEQHSKYPHQEFTVPGSKSTATISGLKPGVDYTITVYAVTIQPQDPEQDYQYHYYETSSKPISINYRTEIDKPSQ",100
3,"WS-LI1 binder having the sequence of SEQ ID NO: 4 (designed binder, Modified ^10Fn3 domain (CD and FG loops)) MGVSDVPRDLEVVAATPTSLLISWDAPAVTVRYYRITYGEHVADHFDHNQEFTVPGSKSTATISGLKPGVDYTITVYAVTYQFQDPEEHYYYHFYDSSSKPISINYRTEIDKPSQ",100

# Target: T2, human PXR-GST (Invitrogen)
# Assay: SPR, Biacore T100; human PXR-GST captured on anti-GST antibody chip;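 also: binding rate constants and Kd derived from kinetic cycles using the Biacore T100 analysis software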
Binder,Kd [nM],koff [s⁻¹],kon [M⁻¹ s⁻¹]
"Adnectin-1 (designed binder, Isolated from an NP1 library; purified by Ni-agarose) MASTSGSTHYYKGTADLEVVAATPTSLLISWPPPYYVEGVTVFRITYGETGGNSPVQEFTVPYWTETATISGLKPGVDYTITVYAEMYPGSPWAGQVMDIQPISINYRTEGSGSHHHHHH",11.4,0.00119,104000
Adnectin-3 (designed binder) MASTSGVSDVPRDLEVVAATPTSLLISWDAPAVPVSKYVIYYWPGALISSMQAFKVPGSKSTATISGLKPGVLYSIVVDALTGDGQGSYVWDPITITYRTEGSGSHHHHHH,2.5,0.000378,162000
Adnectin-6 (designed binder) MGVSDVPRDLEVVAATPTSLLISWSRPKGSIKYYRITYGETGGNSPVQEFTVPNSQYTATISGLKPGVDYTITVYAVYGYPYQEPHYYPISINYRTEIDKPSQHHHHHH,1.9,0.00126,680000
Adnectin-2 (designed binder) MASTSGVSDVPRDLEVVAATPTSLLISWDAPAVTVNNYRITYQPLLQGSSIQHFDVPGSKSTATISGLKPGVGYQITVYASTYTHSKAYYSLPISIYYRTEGSGSHHHHHH,97.8,0.00458,~46800
Adnectin-8 (designed binder) MGVSDVPRDLEVVAATPTSLLISWSQPGRYVKYYRITYGETGGNSPVQEFTVPNDTYTATISGLKPGVDYTITVYAVYGKYGPYYGYDPISINYRTEIDKPSQHHHHHH,4.4,0.000182,41700
Adnectin-7 (designed binder) MGVSDVPRDLEVVTATPTSLLISWDGPKYYVKYYRITYGETGGNSPVQEFTVPRTDHTATISGLKPGVDYTITVYAVKGQYGPYYGSRPISINYRTEIDKPSQHHHHHH,0.31,8.82e-05,288000
Adnectin-5 (designed binder) MGVSDVPRDLEVVAATPTSLLISWKYPYETISYYRITYGETGGNSPVQEFTVPYYRSTATISGLKPGVDYTITVYAVEASAPYSDGGSPISINYRTEIDKPSQHHHHHH,5.4,0.0027,509000
Adnectin-4 (designed binder) MASTSGVSDVPRDLEVVAATPTSLLISWDAPAVTVHSYYITYQELQHHSVPQGFQVPGSKSTATISGLKPGVAYQIAVYAFTGPGLPPSDAPPIVIYYRTEGSGSHHHHHH,7.8,0.000168,21500

# Target: HLA allele molecule DRB*1501 (human)
# Assay: HLA class II competition binding assay: inhibition of the europium-labeled control peptide, time-resolved fluorescence
row,Binder,IC50 [nM]
1,PHFPTRYYRITYGETGGNS (Synthetic peptide from an engineered ^10Fn3 domain; also called modified scaffold region segment C-terminal to the BC loop) [scaffold region peptide of SEQ ID NO: 54],50000
2,MGEVVAATPTSLLIS (Synthetic peptide; also called wildtype scaffold region segment N-terminal to the BC loop) [scaffold region peptide of SEQ ID NO: 53],< 100
3,PTSLLISWDAPAVTVRYYRITYG (Synthetic peptide; also called BC loop region cluster) [BC loop peptide (SEQ ID NO: 58)],< 1000

# Target: HLA allele molecule DRB*0101 (human)
# Assay: as above
row,Binder,IC50 [nM]
1,MGEVVAATPTSLLIS (Synthetic peptide; also called wildtype scaffold region segment N-terminal to the BC loop) [scaffold region peptide of SEQ ID NO: 53],6000

# Target: T4, Recombinant human integrin αVβ3 (R&D Systems) (human, UniProt P06756 31-992; P05106 27-718)
# T4 construct: Amine-coupled on a CM7 chip; also called integrin AlphaV-Beta3
# Assay: SPR (Biacore), integrin amine-coupled to a CM7 chip, binding RU at the end of the injection
row,Binder,binding result
1,non-binding control ^10Fn3 molecule (SEQ ID NO: 6 with an additional MG at the N-terminus and RGD changed to RGE) (designed binder) MGVSDVPRDLEVVAATPTSLLISWDAPAVTVRYYRITYGETGGNSPVQEFTVPGSKSTATISGLKPGVDYTITVYAVTGRGESPASSKPISINYRT,no binding (tested: 5 µM)
